T1: GST-Arl1QL (Arf-like protein 1, Gln71 to Leu, putative active GTP-bound form) (human, UniProt P40616 1-181, Gln71 to Leu (Arl1QL))
T1 construct: Arf-like protein 1 (Arl1), human; fragment encoding Arl1QL subcloned into pGEX4T via EcoRI; Loaded with GTPγS on the resin; also called active form of Arl1; source: E. coli BL21, immobilized on glutathione-sepharose resin, exchanged for GTPγS
T1 sequence (looked up): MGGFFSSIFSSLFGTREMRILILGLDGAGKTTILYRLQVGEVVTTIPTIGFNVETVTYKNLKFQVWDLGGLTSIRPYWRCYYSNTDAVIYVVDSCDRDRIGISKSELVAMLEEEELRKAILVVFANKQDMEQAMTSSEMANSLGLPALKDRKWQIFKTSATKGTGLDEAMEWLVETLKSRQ


Target: T1, GST-Arl1QL (Arf-like protein 1, Gln71 …)
Assay: pull-down; GST fusion proteins (5 μg) immobilized on glutathione-sepharose, incubated with GTPγS (QL) or GDP (TN); HeLa lysates (2.5 mg), endogenous proteins; 12.5% SDS-PAGE and western blotting
Conditions: one partner purified

| fold change of the level bound, against Arf1QL [fold] | Binder |
| --- | --- |
| 1.84 | arfaptin-1a (Arf-interacting protein 1, short isoform), endogenous (natural protein, human (endogenous in HeLa), UniProt P53367-2 1-341, looked up, arfaptin-1a, short isoform of arfaptin-1; lacks the insertion (residues 69-100) of arfaptin-1b; also called arfaptin-1a (short form); source: endogenous, HeLa lysate) MAQESPKNSAAEIPVTSNGEVDDSREHSFNRDLKHSLPSGLGLSETQITSHGFDNTKEGVIEAGAFQGGQRTQTKSGPVILADEIKNPAMEKLELVRKWSLNTYKCTRQIISEKLGRGSRTVDLELEAQIDILRDNKKKYENILKLAQTLSTQLFQMVHTQRQLGDAFADLSLKSLELHEEFGYNADTQKLLAKNGETLLGAINFFIASVNTLVNKTIEDTLMTVKQYESARIEYDAYRTDLEELNLGPRDANTLPKIEQSQHLFQAHKEKYDKMRNDVSVKLKFLEENKVKVLHNQLVLFHNAIAAYFAGNQKQLEQTLKQFHIKLKTPGVDAPSWLEEQ |
| 1.84 | arfaptin-1b (Arf-interacting protein 1b, long isoform), endogenous (natural protein, human (endogenous in HeLa), UniProt P53367 1-373, looked up, arfaptin-1b, long isoform of arfaptin-1 with an insertion (residues 69-100) absent from arfaptin-1a; source: endogenous, HeLa lysate) MAQESPKNSAAEIPVTSNGEVDDSREHSFNRDLKHSLPSGLGLSETQITSHGFDNTKEGVIEAGAFQGSPAPPLPSVMSPSRVAASRLAQQGSDLIVPAGGQRTQTKSGPVILADEIKNPAMEKLELVRKWSLNTYKCTRQIISEKLGRGSRTVDLELEAQIDILRDNKKKYENILKLAQTLSTQLFQMVHTQRQLGDAFADLSLKSLELHEEFGYNADTQKLLAKNGETLLGAINFFIASVNTLVNKTIEDTLMTVKQYESARIEYDAYRTDLEELNLGPRDANTLPKIEQSQHLFQAHKEKYDKMRNDVSVKLKFLEENKVKVLHNQLVLFHNAIAAYFAGNQKQLEQTLKQFHIKLKTPGVDAPSWLEEQ |
